From US20030044814

Target: Rab5 (recombinant, purified from E. coli)

Row | Protein | GTP hydrolysis assay (percentage of non-hydrolysed [gamma-32P]GTP remaining bound to filters)
1 | PRC17 (wild type) (protein) MDVVEVAGSWWAQEREDIIMKYEKGHRAGLPEDKGPKPFRSYNNNVDHLGIVHETELPPLTAREAKQIRREISRKSKWVDMLGDWEKYKSSRKLIDRAYKGMPMNIRGPMWSVLLNIEEMKLKNPGRYQIMKEKGKRSSEHIQRIDRDVSGTLRKHIFFRDRYGTKQRELLHILLAYEEYNPEVGYCRDLSHIAALFLLYLPEEDAFWALVQLLASERHSLQGFHSPNGGTVQGLQDQQEHVVATSQPKTMGHQDKKDLCGQCSPLGCLIRILIDGISLGLTLRLWDVYLVEGEQALMPITRIAFKVQQKRLTKTSRCGPWARFCNRFVDTWARDEDTVLKHLRASMKKLTRKQGDLPPPAKPEQGSSASRPVPASRGGKTLCKGDRQAPPGPPARFPRPIWSASPPRAPRSSTPCPGGAVREDTYPVGTQGVPSPALAQGGPQGSWRFLQWNSMPRLPTDLDVEGPWFRHYDFRQSCWVRAISQEDQLAPCWQAEHPAERVRSAFAAPSTDSDQGTPFRARDEQPCAPTSGPCLCGLHLESSQFPPGF | Addition of wild type PRC17 resulted in a 30% reduction of GTP-bound Rab5
2 | mutant form PRC17 (Arg107 and Asp148 substituted by alanines) (protein) MDVVEVAGSWWAQEREDIIMKYEKGHRAGLPEDKGPKPFRSYNNNVDHLGIVHETELPPLTAREAKQIRREISRKSKWVDMLGDWEKYKSSRKLIDRAYKGMPMNIAGPMWSVLLNIEEMKLKNPGRYQIMKEKGKRSSEHIQRIDRAVSGTLRKHIFFRDRYGTKQRELLHILLAYEEYNPEVGYCRDLSHIAALFLLYLPEEDAFWALVQLLASERHSLQGFHSPNGGTVQGLQDQQEHVVATSQPKTMGHQDKKDLCGQCSPLGCLIRILIDGISLGLTLRLWDVYLVEGEQALMPITRIAFKVQQKRLTKTSRCGPWARFCNRFVDTWARDEDTVLKHLRASMKKLTRKQGDLPPPAKPEQGSSASRPVPASRGGKTLCKGDRQAPPGPPARFPRPIWSASPPRAPRSSTPCPGGAVREDTYPVGTQGVPSPALAQGGPQGSWRFLQWNSMPRLPTDLDVEGPWFRHYDFRQSCWVRAISQEDQLAPCWQAEHPAERVRSAFAAPSTDSDQGTPFRARDEQPCAPTSGPCLCGLHLESSQFPPGF | addition of the mutant form PRC17 had no effect on Rab5 GTP-hydrolysis
